The text below walks through data of the supplement of paper PMC10567573.

A short description of this series: protein stability index of a GFP-peptide fusion (GPS, HEK-293T) (PSI 1-6); higher = more stable.
Where [1] appears, read: treatment: DMSO, c terminus: a fixed tail appended.
Where [2] appears, read: treatment: MLN4924 1 uM, 8 h, c terminus: a fixed tail appended.

± gives the standard deviation.
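Note: 24-mer peptide tiles fused after GFP, lentivirally expressed, FACS-sorted into six equal bins by GFP/DsRed ratio, decoded by Illumina sequencing, PSI is the read-weighted mean bin number.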

The sequence FLVSTHTGEVRTARALLEDDSDTQ [PCDHGC5] returned a protein stability index under setting [1] of 4.63 ± 0.22 and a protein stability index under setting [2] of 4.76 ± 0.24.
Take QTGEWQNIAIMTEEPELSPAYLIS [GFOD1]: the protein stability index was determined as 3.05 ± 0.17 under setting [1] and 3.25 ± 0.22 under setting [2].
On the same counts, the results for LPCNPCATTNASGNSCGPCGTSQK [KRT34] are 4.71 ± 0.12 and 4.86 ± 0.23.
Take GLAGLLPASYTAPIMSGQGLAGFF [SLC29A1]: the protein stability index by setting is: under setting [1], 2.06 ± 0.25; under setting [2], 2.1 ± 0.086.
With LSQPVTYQAFRECTLETTVHASGW [BCL2L13], the protein stability index reads like this: under setting [1], 2.44 ± 0.46; under setting [2], 2.48 ± 0.4.
On the same counts, the results for LHKQTASDLLDEKEIAKNLIQPIN [FEM1C] are 3.38 ± 0.22 and 3.89 ± 0.18.
The like results for FGYRPYDKNISPRENILVSLGAVG [SCD] were, in that order, 2.03 ± 0.44 and 2.75 ± 0.53.
NMKNGANDVKHHRWFRSVDWEAVP [PRKX]: the protein stability index was found to be 2.95 ± 0.33 under setting [1] and 3.08 ± 0.33 under setting [2].
In the case of MKKAKEQLKIRKSNQIPTEVRSKA [FUNDC2], the protein stability index came to 4.59 ± 0.34 under setting [1] and 4.76 ± 0.45 under setting [2].
On the same counts, the results for YRKKSAEFPDFYDSEEPVSTHQEA [CHGB] are 4.97 ± 0.12 and 5.01 ± 0.32.
On the same counts, the results for ETPQPSPPGGSGSEPYKLLPGAVA [HNF4A] are 5.06 ± 0.21 and 4.92 ± 0.11.
On the same counts, the results for QNECQVLKLLNHPNVIEYYENFLE [NEK8] are 2.56 ± 0.12 and 2.67 ± 0.27.
As for GNSTQATVRDAVVGRPSMDKKAQ [ATL3], the protein stability index turned out to be 5.28 ± 0.13 (treatment: DMSO, c terminus: native) and 5.21 ± 0.23 (treatment: MLN4924 1 uM, 8 h, c terminus: native).
Turning to HGSGSHPGPASGPGPDTGPDSELS [SPAG8], the protein stability index runs as follows: under setting [1], 5.41 ± 0.25; under setting [2], 5.37 ± 0.36.
The like results for DKVSDGVTKSPEKRSSLPRPSSIL [MAP2] were, in that order, 4.88 ± 0.14 and 4.99 ± 0.26.
The like results for PLSSQPQAIVTEDKTDISSGRARQ [MLH1] were, in that order, 4.99 ± 0.14 and 5.15 ± 0.23.
The like results for FATPEREMRISESAASGARFPLDS [PCDHGC5] were, in that order, 4.44 ± 0.11 and 4.57 ± 0.3.
For MGHCCCKPYNCLQCLDKTNESALV [MTUS2], the protein stability index by setting is: under setting [1], 3.28 ± 0.3; under setting [2], 3.4 ± 0.34.
Consider GDPLNCHSYLSGYISLLLRAEPYP [NR2F2], for which the protein stability index was 2.76 ± 0.82 under setting [1] and 2.71 ± 0.65 under setting [2].
Consider RSSSCGDTELLGQATLPVGSPSRP [C2CD2L], for which the protein stability index is 5.04 ± 0.15 under setting [1] and 5.04 ± 0.13 under setting [2].
With GQIIKDIDSGSPAEEAGLKNNDLV [PDZK1], the protein stability index by setting is: under setting [1], 5.31 ± 0.33; under setting [2], 5.27 ± 0.079.
IFPRLSFKDKSTYIESSTKVYDDM [CLPTM1]: the protein stability index is 3.03 ± 0.23 under setting [1] and 3.15 ± 0.25 under setting [2].
For MFFTCGPNEAMVVSGFCRSPPVMV [FLOT1], the protein stability index under setting [1] came out at 2.93 ± 0.52 and the protein stability index under setting [2] turned out to be 2.9 ± 0.74.
The like results for RAEIENLHRTFDPHFLRVPCWKIT [MOG] were, in that order, 2.27 ± 0.22 and 2.42 ± 0.22.
The like results for LLEQGAQVNRRSAKGNTALHDCAE [FEM1A] were, in that order, 4.81 ± 0.22 and 4.9 ± 0.23.
On the same counts, the results for MLSWILRINLVAAIFSAPAFPAAV [PSD2] are 3.23 ± 0.19 and 2.89 ± 0.39.
KKEKIIEDKTFGLKNKKGAKQQKF [ZC3H15]: the protein stability index was found to be 4.5 ± 0.27 under setting [1] and 4.33 ± 0.19 under setting [2].
The like results for ERTQLRLESLEDTHIMKGEDDALS [TRIB1] were, in that order, 5.27 ± 0.21 and 5.34 ± 0.41.
The like results for TFKSFEDRVGTIKSKVVGDRENGS [TPD52L2] were, in that order, 4.65 ± 0.062 and 4.7 ± 0.29.
For APLVQPSKNDNGKPDSVGLPPCAV [PCMTD1], the protein stability index reads like this: under setting [1], 5.09 ± 0.15; under setting [2], 5.07 ± 0.22.
On the same counts, the results for CRLAKGENGYGFHLNAIRGLPGSF [PDZK1] are 2.08 ± 0.69 and 2.07 ± 0.24.
Regarding WASTSPGTDLPLSEIPRGVRVALD [TRIM15], the protein stability index reads like this: under setting [1], 3.91 ± 0.29; under setting [2], 3.87 ± 0.26.
The like results for LLKLEQNTCSVITTLKGHEGSVAC [WDFY1] were, in that order, 2.84 ± 0.12 and 3.29 ± 0.32.
As for SVWGYDLGLRSLIPAVLTVSMLGY [MYORG], the protein stability index was determined as 3.05 ± 0.29 under setting [1] and 3.06 ± 0.4 under setting [2].
The like results for DLDSCSRDGALLGCSLTADGLPLH [MYORG] were, in that order, 3.32 ± 0.28 and 3.51 ± 0.3.
On the same counts, the results for GMESYQEVTVQRNCCLTLCNFSIP [ZER1] are 2.41 ± 0.52 and 2.1 ± 0.42.
NYSQDAADACDIDEIEEVPTTSHR [NETO1]: the protein stability index is, setting by setting: under setting [1], 5.55 ± 0.18; under setting [2], 5.49 ± 0.17.
Turning to SEDSFCRRHPGLGKAFPSGCSAVS [TRAF3IP2], the protein stability index was 3.66 ± 0.24 under setting [1] and 3.46 ± 0.33 under setting [2].
The like results for VTGEKEEPSRSASEADSEAGELRK [PPEF2] were, in that order, 5.35 ± 0.61 and 5.5 ± 0.29.
The like results for YTATEQEMQQQMSLGELCHPVPLS [TRIM14] were, in that order, 4.26 ± 0.23 and 4.14 ± 0.27.
On the same counts, the results for YRHQRLHTGERPYECTVCKKRFTR [ZNF449] are 2.75 ± 0.56 and 3.5 ± 0.53.
TFHDSKHNIVHVHFDATRGWLLTS [WDFY2]: the protein stability index under setting [1] worked out at 2.44 ± 0.31 and the protein stability index under setting [2] came to 2.17 ± 0.13.
The like results for MREMFFEDHIDDAKYCGHLYGLGS [CNOT7] were, in that order, 2.68 ± 0.093 and 2.44 ± 0.28.
The like results for FGGGYGGGLGGGYGGGLGGGFGGG [KRT13] were, in that order, 2.37 ± 1.4 and 2.88 ± 0.15.
The like results for KPKMYFMTMIVSLAAVAWVGQQVH [ARL6IP1] were, in that order, 2.83 ± 0.48 and 3.28 ± 0.69.
Consider EELNKEVASNSELVQSSRSEVTEL [KRT16], for which the protein stability index reads like this: under setting [1], 5.51 ± 0.16; under setting [2], 5.55 ± 0.24.
On the same counts, the results for PTKADTEKWAEGGGHSRERADEPQ [CHGB] are 5.46 ± 0.32 and 5.36 ± 0.19.
On the same counts, the results for GRLELKPLLLRLPRICQRNLMSLL [FANCE] are 2.63 ± 0.33 and 2.7 ± 0.23.
The like results for FLCVLMSDWFNFHGHMCIAFELLG [CLK3] were, in that order, 3.2 ± 0.3 and 3.11 ± 0.42.
In the case of LPAGAGAPKAGLEEAPAVTAGLKI [TNFSF13B], the protein stability index runs as follows: under setting [1], 4.65 ± 0.3; under setting [2], 4.65 ± 0.15.
Turning to HTEASAQRSHMGKLKEPQPQDHKP, the protein stability index runs as follows: under setting [1], 5.24 ± 0.71; under setting [2], 5.24 ± 0.33.
On the same counts, the results for SVAVAARHAQTISGHALRILIVDW [HDAC6] are 2.82 ± 0.73 and 2.62 ± 0.63.
On the same counts, the results for ELGEEPQPRDEEEAELELLRQFDL [POLD4] are 5.41 ± 0.26 and 5.51 ± 0.3.
The like results for AGCCQVFDALDDYEHHYHTLHGNV [ZNF511] were, in that order, 2.84 ± 0.35 and 2.88 ± 0.23.
Consider AQTTSEAAMEGATLDQTTSEEAPG [HDAC6], for which the protein stability index came to 5.64 ± 0.28 under setting [1] and 5.54 ± 0.24 under setting [2].
The like results for DKTCSKTKNKSKHALRKKQLKRQK [FAM9B] were, in that order, 4.49 ± 0.21 and 4.59 ± 0.23.
The like results for QASVSCALEALEPFWEVLVRSTET [HDAC6] were, in that order, 2.64 ± 0.57 and 2.46 ± 1.1.
The like results for LKEELAYLKKNHEEEMNALRGQVG [KRT17] were, in that order, 4.01 ± 0.36 and 4.05 ± 0.66.
Regarding PDSMFLAMLAVVSCASIGSGEPPT [CDK11A], the protein stability index by setting is: under setting [1], 2.74 ± 0.15; under setting [2], 3.222 ± 0.003.
On the same counts, the results for ASSPSIRQKKLMHKLQEEKAFREE [CCDC70] are 4.24 ± 0.17 and 4.66 ± 0.14.
On the same counts, the results for QVRIRYLGERRAEPHSLLHLSRLC [SPSB2] are 2.34 ± 0.2 and 2.22 ± 0.22.
The like results for TVQDYQDLIDRGWRRSGKYVYKPV [ATE1] were, in that order, 2.89 ± 0.21 and 3.03 ± 0.51.
On to EDSILGDPKKLLTQHFVQENYLEY [MAGEA3], for which the protein stability index under setting [1] amounted to 3.75 ± 0.36 and the protein stability index under setting [2] was 3.79 ± 0.28.
On the same counts, the results for KHSTFGQSLTQRLHALKLRSPDAS [GNAS] are 3.37 ± 0.29 and 3.44 ± 0.2.
On the same counts, the results for TAQSTFNDLQDLREQILRVKDTDD [RAP1B] are 5.01 ± 0.31 and 4.97 ± 0.27.
The like results for HLVQHQRIHSGEKPYECNECGKAF [ZNF232] were, in that order, 3.65 ± 0.21 and 3.8 ± 0.098.
With SMSTRRLGVAVAVLGGFLYAVGGS [KLHL20], the protein stability index is, setting by setting: under setting [1], 2.29 ± 0.42; under setting [2], 2.67 ± 1.2.
The like results for YTVRAPVGVAGLISPWNLPLYLLT [ALDH8A1] were, in that order, 2.49 ± 0.47 and 2.14 ± 0.07.
The like results for TNLTVTMDQLQGLGSDYEQPLEVK [CDC25A] were, in that order, 4.61 ± 0.16 and 4.69 ± 0.24.
On the same counts, the results for CALGDHGCEHSCVSSEDSFVCQCF [MATN2] are 4.25 ± 0.35 and 4.33 ± 0.3.
Regarding YYVLEPRVVDGTPCSPDSSSVCVQ [ADAMTS4], the protein stability index under setting [1] came out at 3.33 ± 0.35 and the protein stability index under setting [2] was 3.21 ± 0.28.
On the same counts, the results for FEREPSTSDLGTTDVQKKKLVDAI [RIPK4] are 4.62 ± 0.084 and 4.87 ± 0.29.
